According to US5795761A, “Mutants of 2,5-diketo-D-gluconic acid (2,5-DKG) reductase A” (Rutgers, The State University of New Jersey, priority 1996, dated 1998):
Numbering of substitutions follows the chain as printed. Numbers in names are those of the source.

B1: Corynebacterium sp. 2,5-DKG reductase A, wild type (Corynebacterium sp. ATCC 31090) (protein)
chain: MTVPSIVLNDGNSIPQLGYGVFKVPPADTQRAVEEALEVGYRHIDTAAIYGNEEGVGAAIAASGIARDDLFITTKLWNDRHDGDEPAAAIAESLAKLALDQVDLYLVHWPTPAADNYVHAWEKMIELRAAGLTRSIGVSNHLVPHLERIVAATGVVPAVNQIELHPAYQQREITDWAAAHDVKIESWGPLGQGKYDLFGAEPVTAAAAAHGKTPAQAVLRWHLQKGFVVFPKSVRRERLEENLDVFDFDLTDTEIAAIDAMDPGDGSGRVSAHPDEVD
notes: made in house; host or cells: Acetobacter cerinus (ATCC No. 39140)
B2: Corynebacterium sp. 2,5-DKG reductase A mutant F22Y/A272G (Corynebacterium sp. ATCC 31090; A272G/F22Y) (protein)
chain: B1 chain with F22Y, A272G
notes: made in house
B3: Corynebacterium sp. 2,5-DKG reductase A mutant Q192R (Corynebacterium sp. ATCC 31090; Q192R) (protein)
chain: B1 chain with Q192R
notes: made in house; host or cells: Acetobacter cerinus
B4: Corynebacterium sp. 2,5-DKG reductase A mutant A272G (Corynebacterium sp. ATCC 31090; A272G) (protein)
chain: B1 chain with A272G
notes: made in house

Tests used:
Format in all cases: biochemical, Corynebacterium sp. (ATCC 31090)
[1] = substrate: O=C(O)C(=O)[C@@H](O)[C@H](O)C(=O)CO; assay: Substrate kinetics of 2,5-DKG reduction (NADPH oxidation followed at 340 nm); settings: other: 50 mM tris pH 7.0, 0.2 mM NADPH, 2 to 14 mM substrate, 25° C.
Procedure: (§1) The preparations of wild-type and mutant Q192R 2,5-DKG reductase A enzymes were characterized kinetically as to their ability to reduce the substrate 2,5-DKG to 2-KLG. Assays were done in 1 ml total volume of 50 mM tris, pH 7.0, containing 0.2 mM NADPH, a constant amount of enzyme (15-20 μg) and amounts of substrate varying from 2 to 14 mM. The assays were done at 25° C., and the rate of substrate reduction was measured spectrophotometrically by measuring the loss of absorbance at 340 nm wavelength (which is indicative of the oxidation of the cofactor NADPH to NADP+).
The data were analyzed according to the well-known Michaelis equation to determine the kinetic parameters Vmax and Km using the Enzfit software package (Biosoft, Cambridge, UK) on a Epson desktop computer.

[2] = substrate: NC(=O)C1=CN([C@@H]2O[C@H](COP(=O)(O)OP(=O)(O)OC[C@H]3O[C@@H](n4cnc5c(N)ncnc54)[C@H](OP(=O)(O)O)[C@@H]3O)[C@@H](O)[C@H]2O)C=CC1; assay: Cofactor kinetics, constant 2,5-DKG and varying NADPH; settings: other: 50 mM bis-Tris pH 6.8, 10 mM 2,5-DKG, 2.5 to 200 μM NADPH
Procedure: The cofactor affinity of DKG reductase A F22Y, Q192R, A272G, and F22Y/A272G was determined by analysis of a series of reactions with constant substrate concentration and varying concentrations of NADPH.
Each series of reactions consisted of 50 mM bis-Tris pH 6.8, 10 mM 2,5-DKG, from 2.5 to 200 μM NADPH, and enzyme in a total volume of 1.0 ml.
Initial rate data for the reactions were fitted to the Michaelis-Menten equation by non-linear regression analysis as previously described to determine KM,NADPH.

[3] = substrate: O=C(O)C(=O)[C@@H](O)[C@H](O)C(=O)CO; assay: Substrate kinetics of 2,5-DKG reduction, 200 μM NADPH, substrate 0 to 30 mM; settings: other: 200 μM NADPH, 0 to 30 mM 2,5-DKG; pH 7.0; 25.0 °C
Procedure: as §1
A crude kinetic characterization of 2,5-DKG Reductase A mutants D278A, V277A, E276A, D275A, P274A, H273A, A272G, S271A, V270A, R269A, S267A, and D265A was carried out. […] 2-5-DKG Reductase A mutant A272G was characterized in essentially the same manner as in Example 5 except that in order to determine kinetic parameters for the NADPH-dependent reduction of 2,5-DKG by 2,5-DKG reductases, a series of reactions were done with constant saturating concentration of NADPH (200 μM) and varying concentrations of substrate from 0 to 30 mM.

Row | Protein | Km [1] | Vmax [1] | kcat/Km [1] | Km [2] | Km [3] | kcat [3]
1 | B1 | 28 mM | 7.8 μmoles per minute per milligram of protein | 140 M⁻¹ s⁻¹ |  |  | 
2 | B2 |  |  |  | 0.00819 mM |  | 
3 | B3 | 21 mM | 14.0 μmoles per minute per milligram of protein | 335 M⁻¹ s⁻¹ |  |  | 
4 | B4 |  |  |  | 0.00492 mM | 42.61 ± 12.13 mM | 21.44 ± 4.10 s⁻¹
